Experimental data: US20240270846A1 (published 2024)
Where a chain is given by its changes, count along the chain named. Names may count otherwise.

B1: CE115HA000/GLS3000 S56Y one-arm antibody (antibody, human IgG1, kappa, L234A L235A, N297A, name in Kabat numbering)
heavy: QVQLVESGGGVVQPGRSLRLSCAASGFTFSNAWMHWVRQAPGKGLEWVAQIKAKSNNYATYYAESVKGRFTISRDDSKNSLYLQMNSLKTEDTAVYYCRYVHYGAYYGVDAWGQGTTVTVSSASTKGPSVFPLAPSSKSTSGGTAALGCLVKDYFPEPVTVSWNSGALTSGVHTFPAVLQSSGLYSLSSVVTVPSSSLGTQTYICNVNHKPSNTKVDKKVEPKSCDKTHTCPPCPAPEAAGGPSVFLFPPKPKDTLMISRTPEVTCVVVDVSHEDPEVKFNWYVDGVEVHNAKTKPREEQYASTYRVVSVLTVLHQDWLNGKEYKCKVSNKALPAPIEKTISKAKGQPREPQVYTLPPSRCELTKNQVSLSCAVKGFYPSDIAVEWESNGQPENNYKTTPPVLDSDGSFFLVSKLTVDKSRWQQGNVFSCSVMHEALHNHYTQKSLSLSPDYKDDDDK
chain: EPKSSDKTHTCPPCPAPELLGGPSVFLFPPKPKDTLMISRTPEVTCVVVDVSHEDPEVKFNWYVDGVEVHNAKTKPREEQYNSTYRVVSVLTVLHQDWLNGKEYKCKVSNKALPAPIEKTISKAKGQPREPQVCTLPPSRDELTKNQVSLWCLVKGFYPSDIAVEWESNGQPENNYKTTPPVLDSDGSFFLYSKLTVDKSRWQQGNVFSCSVMHEALHNRYTQKSLSLSP
light: DIVMTQSPLSLPVTPGEPASISCRSSQSLVHSNRNTYLHWYQQKPGQAPRLLIYKVSNRFYGVPDRFSGSGSGTDFTLKISRVEAEDVGVYYCGQGTQVPYTFGQGTKLEIKRTVAAPSVFIFPPSDEQLKSGTASVVCLLNNFYPREAKVQWKVDNALQSGNSQESVTEQDSKDSTYSLSSTLTLSKADYEKHKVYACEVTHQGLSSPVTKSFNRGEC
notes: one-arm IgG1
B2: CE115HA000/GLS3000 V94G one-arm antibody (antibody, human IgG1, kappa, L234A L235A, N297A, name in Kabat numbering)
heavy: B1 heavy
chain: B1 chain
light: B1 light with Y61S, V99G
notes: one-arm IgG1
B3: CE115HA000/GLS3000 T92E one-arm antibody (antibody, human IgG1, kappa, L234A L235A, N297A, name in Kabat numbering)
heavy: B1 heavy
chain: B1 chain
light: B1 light with Y61S, T97E
notes: one-arm IgG1
B4: CE115HA000/GLS3000 V94A one-arm antibody (antibody, human IgG1, kappa, L234A L235A, N297A, name in Kabat numbering)
heavy: B1 heavy
chain: B1 chain
light: B1 light with Y61S, V99A
notes: one-arm IgG1
B5: CE115HA000/GLS3000 T31P one-arm antibody (antibody, human IgG1, kappa, L234A L235A, N297A, name in Kabat numbering)
heavy: B1 heavy
chain: B1 chain
light: B1 light with T36P, Y61S
notes: one-arm IgG1
B6: CE115HA000/GLS3000 Y32F one-arm antibody (antibody, human IgG1, kappa, L234A L235A, N297A, name in Kabat numbering)
heavy: B1 heavy
chain: B1 chain
light: B1 light with Y37F, Y61S
notes: one-arm IgG1
B7: CE115HA000/GLS3000 T31D one-arm antibody (antibody, human IgG1, kappa, L234A L235A, N297A, name in Kabat numbering)
heavy: B1 heavy
chain: B1 chain
light: B1 light with T36D, Y61S
notes: one-arm IgG1
B8: CE115HA000/GLS3000 V51I one-arm antibody (antibody, human IgG1, kappa, L234A L235A, N297A, name in Kabat numbering)
heavy: B1 heavy
chain: B1 chain
light: B1 light with V56I, Y61S
notes: one-arm IgG1
B9: CE115HA000/GLS3000 V94L one-arm antibody (antibody, human IgG1, kappa, L234A L235A, N297A, name in Kabat numbering)
heavy: B1 heavy
chain: B1 chain
light: B1 light with Y61S, V99L
notes: one-arm IgG1
B10: CE115HA000/GLS3000 Y96E one-arm antibody (antibody, human IgG1, kappa, L234A L235A, N297A, name in Kabat numbering)
heavy: B1 heavy
chain: B1 chain
light: B1 light with Y61S, Y101E
notes: one-arm IgG1
B11: CE115HA000/GLS3000 V94F one-arm antibody (antibody, human IgG1, kappa, L234A L235A, N297A, name in Kabat numbering)
heavy: B1 heavy
chain: B1 chain
light: B1 light with Y61S, V99F
notes: one-arm IgG1
B12: CE115HA000/GLS3000 V94I one-arm antibody (antibody, human IgG1, kappa, L234A L235A, N297A, name in Kabat numbering)
heavy: B1 heavy
chain: B1 chain
light: B1 light with Y61S, V99I
notes: one-arm IgG1
B13: CE115HA000/GLS3000 T92D one-arm antibody (antibody, human IgG1, kappa, L234A L235A, N297A, name in Kabat numbering)
heavy: B1 heavy
chain: B1 chain
light: B1 light with Y61S, T97D
notes: one-arm IgG1
B14: CE115HA000/GLS3000 Y32P one-arm antibody (antibody, human IgG1, kappa, L234A L235A, N297A, name in Kabat numbering)
heavy: B1 heavy
chain: B1 chain
light: B1 light with Y37P, Y61S
notes: one-arm IgG1
B15: CE115HA000/GLS3000 T92A one-arm antibody (antibody, human IgG1, kappa, L234A L235A, N297A, name in Kabat numbering)
heavy: B1 heavy
chain: B1 chain
light: B1 light with Y61S, T97A
notes: one-arm IgG1
B16: CE115HA000/GLS3000 Y96F one-arm antibody (antibody, human IgG1, kappa, L234A L235A, N297A, name in Kabat numbering)
heavy: B1 heavy
chain: B1 chain
light: B1 light with Y61S, Y101F
notes: one-arm IgG1
B17: CE115HA000/GLS3000 T92L one-arm antibody (antibody, human IgG1, kappa, L234A L235A, N297A, name in Kabat numbering)
heavy: B1 heavy
chain: B1 chain
light: B1 light with Y61S, T97L
notes: one-arm IgG1
B18: CE115HA000/GLS3000 V51G one-arm antibody (antibody, human IgG1, kappa, L234A L235A, N297A, name in Kabat numbering)
heavy: B1 heavy
chain: B1 chain
light: B1 light with V56G, Y61S
notes: one-arm IgG1
B19: CE115HA000/GLS3000 T31I one-arm antibody (antibody, human IgG1, kappa, L234A L235A, N297A, name in Kabat numbering)
heavy: B1 heavy
chain: B1 chain
light: B1 light with T36I, Y61S
notes: one-arm IgG1
B20: CE115HA000/GLS3000 V94E one-arm antibody (antibody, human IgG1, kappa, L234A L235A, N297A, name in Kabat numbering)
heavy: B1 heavy
chain: B1 chain
light: B1 light with Y61S, V99E
notes: one-arm IgG1
B21: CE115HA000/GLS3000 V51E one-arm antibody (antibody, human IgG1, kappa, L234A L235A, N297A, name in Kabat numbering)
heavy: B1 heavy
chain: B1 chain
light: B1 light with V56E, Y61S
notes: one-arm IgG1
B22: CE115HA000/GLS3000 V94K one-arm antibody (antibody, human IgG1, kappa, L234A L235A, N297A, name in Kabat numbering)
heavy: B1 heavy
chain: B1 chain
light: B1 light with Y61S, V99K
notes: one-arm IgG1
B23: CE115HA000/GLS3000 V94N one-arm antibody (antibody, human IgG1, kappa, L234A L235A, N297A, name in Kabat numbering)
heavy: B1 heavy
chain: B1 chain
light: B1 light with Y61S, V99N
notes: one-arm IgG1
B24: CE115HA000/GLS3000 T31E one-arm antibody (antibody, human IgG1, kappa, L234A L235A, N297A, name in Kabat numbering)
heavy: B1 heavy
chain: B1 chain
light: B1 light with T36E, Y61S
notes: one-arm IgG1
B25: CE115HA000/GLS3000 V94D one-arm antibody (antibody, human IgG1, kappa, L234A L235A, N297A, name in Kabat numbering)
heavy: B1 heavy
chain: B1 chain
light: B1 light with Y61S, V99D
notes: one-arm IgG1
B26: CE115HA000/GLS3000 V51D one-arm antibody (antibody, human IgG1, kappa, L234A L235A, N297A, name in Kabat numbering)
heavy: B1 heavy
chain: B1 chain
light: B1 light with V56D, Y61S
notes: one-arm IgG1
B27: CE115HA000/GLS3000 V94H one-arm antibody (antibody, human IgG1, kappa, L234A L235A, N297A, name in Kabat numbering)
heavy: B1 heavy
chain: B1 chain
light: B1 light with Y61S, V99H
notes: one-arm IgG1
B28: CE115HA000/GLS3000 Y96H one-arm antibody (antibody, human IgG1, kappa, L234A L235A, N297A, name in Kabat numbering)
heavy: B1 heavy
chain: B1 chain
light: B1 light with Y61S, Y101H
notes: one-arm IgG1
B29: CE115HA000/GLS3000 Y32D one-arm antibody (antibody, human IgG1, kappa, L234A L235A, N297A, name in Kabat numbering)
heavy: B1 heavy
chain: B1 chain
light: B1 light with Y37D, Y61S
notes: one-arm IgG1
B30: CE115HA000/GLS3000 Y96D one-arm antibody (antibody, human IgG1, kappa, L234A L235A, N297A, name in Kabat numbering)
heavy: B1 heavy
chain: B1 chain
light: B1 light with Y61S, Y101D
notes: one-arm IgG1
B31: CE115HA000/GLS3000 T31K one-arm antibody (antibody, human IgG1, kappa, L234A L235A, N297A, name in Kabat numbering)
heavy: B1 heavy
chain: B1 chain
light: B1 light with T36K, Y61S
notes: one-arm IgG1
B32: CE115HA000/GLS3000 V51P one-arm antibody (antibody, human IgG1, kappa, L234A L235A, N297A, name in Kabat numbering)
heavy: B1 heavy
chain: B1 chain
light: B1 light with V56P, Y61S
notes: one-arm IgG1
B33: CE115HA000/GLS3000 V94M one-arm antibody (antibody, human IgG1, kappa, L234A L235A, N297A, name in Kabat numbering)
heavy: B1 heavy
chain: B1 chain
light: B1 light with Y61S, V99M
notes: one-arm IgG1
B34: CE115HA000/GLS3000 T31N one-arm antibody (antibody, human IgG1, kappa, L234A L235A, N297A, name in Kabat numbering)
heavy: B1 heavy
chain: B1 chain
light: B1 light with T36N, Y61S
notes: one-arm IgG1
B35: CE115HA000/GLS3000 T92I one-arm antibody (antibody, human IgG1, kappa, L234A L235A, N297A, name in Kabat numbering)
heavy: B1 heavy
chain: B1 chain
light: B1 light with Y61S, T97I
notes: one-arm IgG1

These binders were tested against T1, CD3 epsilon homodimer protein (UniProt P07766 23-126) (assay: SPR (Biacore T200), CD3e homodimer on CM4 chip, antibody as analyte; KD ratio vs unaltered GLS3000;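 also: CD3 epsilon homodimer amine-coupled to the sensor surface, antibodies injected as analyte at 25 °C with HBS-EP+ running buffer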).
T1 construct: also called CD3 (CD3 epsilon)
T1 sequence (P07766 23-126): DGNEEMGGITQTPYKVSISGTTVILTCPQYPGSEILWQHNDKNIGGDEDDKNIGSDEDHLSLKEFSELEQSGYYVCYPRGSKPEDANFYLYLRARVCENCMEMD

| KD ratio to GLS3000 [ratio] | Binder |
| --- | --- |
| 1.1 | B1 |
| 2.59 | B2 |
| 19.6 | B3 |
| 1.05 | B4 |
| 10.8 | B5 |
| 4.51 | B6 |
| 30.9 | B7 |
| 0.69 | B8 |
| 3.06 | B9 |
| 46.8 | B10 |
| 1.75 | B11 |
| 1.46 | B12 |
| 11.2 | B13 |
| 62 | B14 |
| 1.35 | B15 |
| 0.86 | B16 |
| 1.61 | B17 |
| 0.83 | B18 |

| KD ratio to GLS3000 [ratio] | Binder |
| --- | --- |
| 1.1 | B19 |
| 1.18 | B20 |
| 0.88 | B21 |
| 0.91 | B22 |
| 0.96 | B23 |
| 1.59 | B24 |
| 1.05 | B25 |
| 1.5 | B26 |
| 1.16 | B27 |
| 80.3 | B28 |
| 25.9 | B29 |
| 40.9 | B30 |
| 0.88 | B31 |
| 6 | B32 |
| 2.74 | B33 |
| 4.46 | B34 |
| 1.91 | B35 |
